Columns and labels:
[1] = target: recombinant human TNF-α (Product 210-TA-050, R&D) (human) (UniProt P01375); test: cell-based or functional assay
[2] = target: recombinant human TNF-α (Product 210-TA-050, R&D) (human) (UniProt P01375); test: SPR, Biacore T100, TNFα amine-coupled to CM5 chip, antibody in flow
[3] = target: recombinant human TNF-α (Product 210-TA-050, R&D) (human) (UniProt P01375); test: flow cytometry competition: FITC-TNF-α (100 ng/ml) on U937 cells, antibody titrated; average of 3
[4] = target: recombinant human TNF-α (Product 210-TA-050, R&D) (human) (UniProt P01375); test: flow cytometry competition: FITC-TNF-α (100 ng/ml) on U937 cells, antibody titrated; experiment 1
[5] = target: recombinant human TNF-α (Product 210-TA-050, R&D) (human) (UniProt P01375); test: flow cytometry competition: FITC-TNF-α (100 ng/ml) on U937 cells, antibody titrated; experiment 2
[6] = target: recombinant human TNF-α (Product 210-TA-050, R&D) (human) (UniProt P01375); test: flow cytometry competition: FITC-TNF-α (100 ng/ml) on U937 cells, antibody titrated; experiment 3
[7] = target: recombinant human TNF-α (Product 210-TA-050, R&D) (human) (UniProt P01375); test: competition ELISA: biotin-TNF-α (10 ng/ml) on coated P75 receptor-Fc, antibody titrated; average of 3
[8] = target: recombinant human TNF-α (Product 210-TA-050, R&D) (human) (UniProt P01375); test: competition ELISA: biotin-TNF-α (10 ng/ml) on coated P75 receptor-Fc, antibody titrated; experiment 1
[9] = target: recombinant human TNF-α (Product 210-TA-050, R&D) (human) (UniProt P01375); test: competition ELISA: biotin-TNF-α (10 ng/ml) on coated P75 receptor-Fc, antibody titrated; experiment 2
[10] = target: recombinant human TNF-α (Product 210-TA-050, R&D) (human) (UniProt P01375); test: competition ELISA: biotin-TNF-α (10 ng/ml) on coated P75 receptor-Fc, antibody titrated; experiment 3

Chain of recombinant human TNF-α (Product 210-TA-050, R&D) (human) (P01375 77-233 limits assumed): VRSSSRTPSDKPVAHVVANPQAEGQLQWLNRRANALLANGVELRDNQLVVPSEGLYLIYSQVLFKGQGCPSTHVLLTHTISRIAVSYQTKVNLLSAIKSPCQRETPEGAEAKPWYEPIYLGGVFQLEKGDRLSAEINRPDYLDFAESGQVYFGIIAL

fully human antibody adalimumab (Humira, D2E7, commercial product)
IC50 of resistance to TNF-α-mediated killing of L929 cells (MTS), average [1]: 316 ng/mL
IC50 of resistance to TNF-α-mediated killing of L929 cells (MTS), experiment 1 [1]: 296 ng/mL
IC50 of resistance to TNF-α-mediated killing of L929 cells (MTS), experiment 2 [1]: 335 ng/mL
IC50 of resistance to TNF-α-mediated killing of L929 cells (MTS), experiment 3 [1]: 318 ng/mL
Increase in Body Temperature of Rabbits (rhTNF-α 5 µg/kg i.v. mixed with antibody 500 µg/kg; 60 min) [1]: 0 ° C.
Survival Status of Mice (rhTNF-α 1 µg + D-galactosamine 20 mg; antibody 1 µg i.p. 30 min before) [1]: 20%
Survival Status of Mice (rhTNF-α 1 µg + D-galactosamine 20 mg; antibody 2 µg i.p. 30 min before) [1]: 40%
Survival Status of Mice (rhTNF-α 1 µg + D-galactosamine 20 mg; antibody 4 µg i.p. 30 min before) [1]: 40%
Survival Status of Mice (rhTNF-α 1 µg + D-galactosamine 20 mg; antibody 6 µg i.p. 30 min before) [1]: 50%
Survival Status of Mice (rhTNF-α 1 µg + D-galactosamine 20 mg; antibody 8 µg i.p. 30 min before) [1]: 60%
Kd [2]: 0.63 nM
IC50 [3]: 7.36 µg/mL
IC50 [4]: 6.62 µg/mL
IC50 [5]: 8.03 µg/mL
IC50 [6]: 7.44 µg/mL
IC50 [7]: 2.35 µg/mL
IC50 [8]: 2.3 µg/mL
IC50 [9]: 2.15 µg/mL
IC50 [10]: 2.59 µg/mL

— US20120308575A1
